B1: PSMGFR minus 10 amino acids from the C-terminus (peptide)
peptide: GTINVHDVETQFNQYKTEAASRYNLTISDVSVSDV
notes: also called C-10; C-10 PSMGFR
B2: humanized MN-C2 scFv (scFv, V domains shown)
VH: EVQLVESGGGLVKPGGSLRLSCAASGFTFSGYAMSWVRQAPGKGLEWVSTISSGGTYIYYPDSVKGRFTISRDNAKNSLYLQMNSLRAEDTAVYYCARLGGDNYYEYFDVWGKGTTVTVSS
VL: DIVLTQSPASLAVSPGQRATITCRASKSVSTSGYSYMHWYQQKPGQPPKLLIYLASNLESGVPARFSGSGSGTDFTLTINPVEANDTANYYCQHSRELPFTFGGGTKVEIKR
notes: several humanized MN-C2 single chain proteins were generated; the one in the assays is not identified; also called huMN-C2 scFv; hMN-C2 scFv; not shown: 6x His tag, detected in the flow cytometry assay
B3: CAR44 huMNC2-CD8-4-1BB-CD3z (other)
chain: EVQLVESGGGLVKPGGSLRLSCAASGFTFSGYAMSWVRQAPGKGLEWVSTISSGGTYIYYPDSVKGRFTISRDNAKNSLYLQMNSLRAEDTAVYYCARLGGDNYYEYFDVWGKGTTVTVSSGGGGSGGGGSGGGGSDIVLTQSPASLAVSPGQRATITCRASKSVSTSGYSYMHWYQQKPGQPPKLLIYLASNLESGVPARFSGSGSGTDFTLTINPVEANDTANYYCQHSRELPFTFGGGTKVEIKRTTTTPAPRPPTPAPTIASQPLSLRPEACRPAAGGAVHTRGLDFACDIYIWAPLAGTCGVLLLSLVITLYCKRGRKKLLYIFKQPFMRPVQTTQEEDGCSCRFPEEEEGGCELRVKFSRSADAPAYKQGQNQLYNELNLGRREEYDVLDKRRGRDPEMGGKPRRKNPQEGLYNELQKDKMAEAYSEIGMKGERRRGKGHDGLYQGLSTATKDTYDALHMQALPPR
notes: also called huMNC2-CAR44; huMNC2-scFv-CAR44
B4: humanized MN-C3 antibody (antibody, V domains shown)
VH: QVQLVQSGAEVKKPGASVKVSCKASGYTFTDYAMNWVRQAPGQGLEWMGVISTFSGNTNFNQKFKGRVTMTTDTSTSTAYMELRSLRSDDTAVYYCARSDYYGPYFDYWGQGTTLTVSS
VL: DIVMTQTPLSLSVTPGQPASISCRSSQTIVHSNGNTYLEWYLQKPGQSPQLLIYKVSNRFSGVPDRFSGSGSGTDFTLKISRVEAEDVGVYYCFQGSHVPFTFGGGTKVEIKR
notes: tested impure; also called Impure humanized MN-C3 antibody
B5: mouse monoclonal antibody MN-C2 (antibody, V domains shown)
VH: EVQLEESGGGLVKPGGSLKLSCAASGFTFSGYAMSWVRQTPEKRLEWVATISSGGTYIYYPDSVKGRFTISRDNAKNTLYLQMSSLRSEDTAMYYCARLGGDNYYEYFDVWGAGTTVTVSS
VL: DIVITQSTASLGVSLGQRATISCRASKSVSTSGYSYMHWYQQRPGQPPKLLIYLASNLESGVPARFSGSGSGTDFTLNIHPVEEEDAATYYCQHSRELPFTFGGGTKLEIKR
notes: mouse monoclonal; also called Min-C2
B6: CAR50 (MNC2 scFv, CD4 transmembrane domain, 41BB-3zeta) (other)
chain: EVQLVESGGGLVKPGGSLRLSCAASGFTFSGYAMSWVRQAPGKGLEWVSTISSGGTYIYYPDSVKGRFTISRDNAKNSLYLQMNSLRAEDTAVYYCARLGGDNYYEYFDVWGKGTTVTVSSGGGGSGGGGSGGGGSDIVLTQSPASLAVSPGQRATITCRASKSVSTSGYSYMHWYQQKPGQPPKLLIYLASNLESGVPARFSGSGSGTDFTLTINPVEANDTANYYCQHSRELPFTFGGGTKVEIKRTSGQVLLESNIKVLPTWSTPVQPMALIVLGGVAGLLLFIGLGIFFKRGRKKLLYIFKQPFMRPVQTTQEEDGCSCRFPEEEEGGCELRVKFSRSADAPAYKQGQNQLYNELNLGRREEYDVLDKRRGRDPEMGGKPRRKNPQEGLYNELQKDKMAEAYSEIGMKGERRRGKGHDGLYQGLSTATKDTYDALHMQALPPR
notes: chimeric antigen receptor on transduced human T cells; also called huMNC2-CAR50; huMNC2-scFv-CAR50
B7: mouse monoclonal antibody MN-C3 (antibody, V domains shown)
VH: QVQLQQSGPELVRPGVSVKISCKGSGYRFTDYAMNWVKQSHAKSLEWIGVISTFSGNTNFNQKFKGKATMTVDKSSSTAYMELARLTSEDSAMYYCARSDYYGPYFDYWGQGTTLTVSS
VL: DVLMTQTPLSLPVSLGDQASISCRSSQTIVHSNGNTYLEWYLQKPGQSPKLLIYKVSNRFSGVPDRFSGSGSGTDFTLKINRVEAEDLGVYYCFQGSHVPFTFGSGTKLEIK
notes: mouse monoclonal; also called Min-C3
B8: mouse monoclonal antibody MN-E6 (antibody, V domains shown)
VH: EVKVVESGGDLVKPGGSLKLSCVVSGFTFSRYGMSWVRQTPGKRLEWVATISGGGTYIYYPDSVKGRFTISRDNAKNTLYLQMSSLKSEDTAMYHCTRDNYGRNYDYGMDYWGQGTSVTVSS
VL: QIVLTQSPAIMSASPGEEVTLTCSATSSVSYIHWFQQRPGTSPKLWIYSTSNLASGVPVRFSGSGYGTSYSLTISRMEAEDAATYYCQQRSSSPFTFGSGTKLEIK
notes: mouse monoclonal; also called Min-E6
B9: humanized MN-E6 scFv (scFv, V domains shown, not shown: small tags and cut ends)
VH: EVQLVESGGGLVKPGGSLRLSCAASGFTFSRYGMSWVRQAPGKRLEWVSTISGGGTYIYYPDSVKGRFTISRDNAKNTLYLQMNSLRAEDTAVYYCTRDNYGRNYDYGMDYWGQGTLVTVSS
VL: EIVLTQSPATLSLSPGERATLTCSATSSVSYIHWYQQRPGQSPRLLIYSTSNLASGIPARFSGSGSGSDYTLTISSLEPEDFAVYYCQQRSSSPFTFGSGTKVEIK
notes: several humanized MN-E6 single chain proteins were generated; the one in the assays is not identified; also called hu MN-E6 scFv

Tests used:
[1] = target: MUC1-41TR (MUC1 with an extracellular domain truncated after 41 tandem repeats) (Homo sapiens (Human)) (UniProt P15941); assay: FACS on HCT-MUC1-41TR cells
Sequence of MUC1-41TR (MUC1 with an extracellular domain truncated after 41 tandem repeats) (Homo sapiens (Human)) (P15941 other isoform, or with tags, fused parts or gaps limits assumed): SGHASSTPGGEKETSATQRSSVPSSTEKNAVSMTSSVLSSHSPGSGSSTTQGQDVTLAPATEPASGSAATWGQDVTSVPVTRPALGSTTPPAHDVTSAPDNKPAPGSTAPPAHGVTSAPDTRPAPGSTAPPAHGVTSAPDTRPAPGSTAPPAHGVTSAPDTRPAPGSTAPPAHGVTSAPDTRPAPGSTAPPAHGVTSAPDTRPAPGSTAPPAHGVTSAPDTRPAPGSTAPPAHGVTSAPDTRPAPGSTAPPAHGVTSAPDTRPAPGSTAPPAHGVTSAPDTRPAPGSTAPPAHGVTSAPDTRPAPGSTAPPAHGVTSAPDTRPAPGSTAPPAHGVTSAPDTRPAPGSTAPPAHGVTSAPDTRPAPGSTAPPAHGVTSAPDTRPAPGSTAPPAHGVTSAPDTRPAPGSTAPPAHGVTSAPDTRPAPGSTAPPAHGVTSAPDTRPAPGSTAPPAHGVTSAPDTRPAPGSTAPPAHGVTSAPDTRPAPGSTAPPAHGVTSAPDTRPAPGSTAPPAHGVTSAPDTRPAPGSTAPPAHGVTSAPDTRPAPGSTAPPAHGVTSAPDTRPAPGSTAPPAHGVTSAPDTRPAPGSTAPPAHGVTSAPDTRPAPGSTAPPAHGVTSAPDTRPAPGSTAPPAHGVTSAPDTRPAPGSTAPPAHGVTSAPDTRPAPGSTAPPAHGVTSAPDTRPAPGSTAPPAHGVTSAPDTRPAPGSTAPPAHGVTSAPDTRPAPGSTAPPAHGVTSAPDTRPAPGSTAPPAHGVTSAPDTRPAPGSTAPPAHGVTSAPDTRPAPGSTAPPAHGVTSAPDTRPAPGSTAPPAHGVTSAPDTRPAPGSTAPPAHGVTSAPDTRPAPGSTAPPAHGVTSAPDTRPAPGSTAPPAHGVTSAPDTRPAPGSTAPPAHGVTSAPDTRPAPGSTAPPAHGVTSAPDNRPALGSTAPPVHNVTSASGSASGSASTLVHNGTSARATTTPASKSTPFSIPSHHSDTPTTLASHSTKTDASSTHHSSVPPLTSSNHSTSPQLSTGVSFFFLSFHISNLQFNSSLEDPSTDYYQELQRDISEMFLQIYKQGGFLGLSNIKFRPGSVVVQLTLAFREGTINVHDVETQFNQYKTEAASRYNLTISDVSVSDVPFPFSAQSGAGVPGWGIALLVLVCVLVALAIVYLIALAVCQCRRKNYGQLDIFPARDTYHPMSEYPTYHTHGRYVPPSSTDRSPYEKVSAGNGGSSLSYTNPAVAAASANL

[2] = target: T1, NME7-AB (human, UniProt Q9Y5B8 92-376); assay: ELISA on immobilized peptide
T1 construct: also called NM23-H7
T1 sequence: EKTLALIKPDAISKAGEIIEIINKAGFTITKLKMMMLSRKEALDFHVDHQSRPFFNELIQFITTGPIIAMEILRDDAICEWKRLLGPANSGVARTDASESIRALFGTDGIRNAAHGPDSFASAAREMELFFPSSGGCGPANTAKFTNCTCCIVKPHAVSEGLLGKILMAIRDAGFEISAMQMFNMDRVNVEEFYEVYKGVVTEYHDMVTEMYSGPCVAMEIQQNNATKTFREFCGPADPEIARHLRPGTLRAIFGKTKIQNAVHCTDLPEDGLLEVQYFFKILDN

[3] = target: T2, dimeric NME1 (human, UniProt P15531 1-152, limits assumed); assay: ELISA on immobilized peptide
T2 construct: used as a dimer; also called dimeric NM23-H1; NM23-H1 dimers
T2 sequence (P15531 whole entry): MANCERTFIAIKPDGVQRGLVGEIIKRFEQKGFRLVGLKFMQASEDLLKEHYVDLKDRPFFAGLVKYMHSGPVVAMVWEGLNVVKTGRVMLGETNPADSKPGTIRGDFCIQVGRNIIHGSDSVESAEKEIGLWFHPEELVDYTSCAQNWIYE

[4] = target: T3, PSMGFR peptide (Primary Sequence of the MUC1 Growth Factor Receptor); assay: ELISA, surface coated with PSMGFR peptide or a control peptide
T3 construct: synthetic peptide, immobilized on ELISA plates or attached to beads; also called MUC1* peptide; synthetic MUC1* extra cellular domain peptide
T3 peptide: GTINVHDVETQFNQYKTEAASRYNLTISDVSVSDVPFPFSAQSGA
Experimental: Humanized MN-C2 scFv is then incubated with the surface, washed and detected according to standard methods.

[5] = target: T4, MUC1-41TR (MUC1 with an extracellular domain truncated after 41 tandem repeats) (Homo sapiens (Human), UniProt P15941 24-1255); assay: CAR T co-culture, photographs; no T cell induced clustering
T4 construct: only minimally cleaved to MUC1*; also called HCT-MUC1-41TR; HCT-MUC1-18
T4 sequence (P15941 other isoform, or with tags, fused parts or gaps limits assumed): as the sequence (P15941 other isoform, or with tags, fused parts or gaps limits assumed) above
Experimental: FIGS. 75A-75P show photographs of a CAR T co-culture assay in which the targeting antibody fragment of the CAR is huMNC2scFv wherein CAR44 has a CD8 transmembrane domain, followed by 41BB-3zeta and CAR50 has a CD4 transmembrane domain, followed by 41BB-3zeta. […] The HCT-MUC1-41TR cancer cells were also incubated with conditioned media from cells transfected with MMP9 or ADAM17 before co-culture with the CAR T cells. Conditioned media of the MMP9 or ADAM17 expressing cells were also incubated with APMA which is an activator of those cleavage enzymes. The images shown are an overlay of the 4× bright field image and the fluorescent image of the same showing cancer cells dyed with a red CMTMR lipophilic dye. FIGS. 75A, 75E, 75I, 75M show photographs of cells co-cultured with untransduced human T cells. FIGS. 75B, 75F, 75J, 75N show photographs of cells co-cultured with human T cells transduced with anti-MUC1* CAR44 at an MOI of 10. FIGS. 75C, 75G, 75K, 75O show photographs of cells co-cultured with human T cells transduced with anti-MUC1* CAR50 at an MOI of 10. FIGS. 75D, 75H, 75L, 75P show photographs of cells co-cultured with human T cells transduced with anti-MUC1* CAR44 at an MOI of 50, which increases transduction efficiency. […] There is no T cell induced clustering and the number of cancer cells has not decreased. […]

[6] = target: T3, PSMGFR peptide (Primary Sequence of the …); assay: ELISA on immobilized PSMGFR, N-10 and C-10 peptides
Experimental: FIGS. 22A-22C show graphs of ELISAs wherein the assay plate surface was immobilized with either PSMGFR peptide, PSMGFR minus 10 amino acids from the N-terminus or minus 10 amino acids from the C-terminus. The MN-C3 antibody variants were then assayed for binding to the various MUC1* peptides. A) Purified mouse monoclonal MN-C3 antibody; B) Impure humanized MN-C3 antibody; and C) the humanized MN-C3 scFv-Fc. ELISAs show binding to the PSMGFR peptide as well as to certain deletion peptides.

[7] = target: T5, PSMGFR minus 10 amino acids from the N-terminus; assay: selection criteria, FIGS. 3A-3C named
T5 construct: also called N-10; N-10 PSMGFR
T5 peptide: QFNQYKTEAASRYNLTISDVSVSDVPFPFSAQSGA
Experimental: (§1) FIGS. 3A-3C show results of competitive ELISA assays. The PSMGFR MUC1* peptide is immobilized on the plate and dimeric NM23-H1, aka NME1, is added either alone or after the MN-E6 antibody has been added (A). The same experiment was performed wherein NM23-H7, NME7-AB, is added alone or after MN-E6 has been added (B). […] In a similar experiment (C), PSMGFR or PSMGFR minus 10 amino acids from the N-terminus, aka N-10, is immobilized on the plate. Dimeric NM23-H1 is then added. Anti-MUC1* antibodies MN-E6, MN-C2, MN-C3 or MN-C8 are then tested for their ability to compete off the NM23-H1.

[8] = target: T3, PSMGFR peptide (Primary Sequence of the …); assay: competitive ELISA on immobilized PSMGFR or N-10 peptide
Experimental: as §1

[9] = target: B1; assay: ELISA on immobilized N-10 and C-10 peptides
[10] = target: T3, PSMGFR peptide (Primary Sequence of the …); assay: ELISA on PSMGFR peptide
Excerpt: FIGS. 21A-21B show an ELISA graph of several anti-MUC1* scFv-Fc fusion proteins wherein the Fc region has been eliminated or mutated. Shown are hu MN-E6 scFv-Fc-wt, hu MN-E6 scFv-Fc-Y407R, hu MN-E6 scFv-Fc-hingeless, and hu MN-E6 scFv-Fc-Y407R-hingeless. All mutants bind to the PSMGFR peptide of the MUC1* extracellular domain (A). An ELISA graph of several anti-MUC1* scFv-Fc fusion proteins wherein the Fc region is either wild type or mutated. Shown are hu MN-E6 scFv-Fc-wt, hu MN-E6 scFv-Fc-hingeless, and hu MN-C3 scFv-Fc is shown (B). All bind to the PSMGFR peptide of the MUC1* extracellular domain.

How did the percent of cells positive [1] turn out when VU4H5 (antibody) was run?
The percent of cells positive was 95%.

Does B1 bind [2]?
Result: no binding

Does B1 bind [3]?
Result: no binding

With B2 as the molecule, how does the EC50 [4] read?
The EC50 was roughly 0.333 µM.

Does B3 bind [5]?
Result: no binding

Does B4 bind [6]?
Result: binds

Does B5 bind [7]?
Result: binds

Does B5 bind [8]?
Result: binds

Does B6 bind [5]?
Result: no binding

Does B7 bind [9]?
Result: binds

Does B7 bind [6]?
Result: binds

Does B8 bind [7]?
Result: binds

Does B8 bind [8]?
Result: binds

Does B9 bind [10]?
Result: binds

— patent US20200390870A1 (MINERVA BIOTECHNOLOGIES, published 2020)
